Reference: paper PMC8664124 (Journal of immunology (Baltimore, Md. : 1950), 2021)

Molecular target: SARS-CoV-2 Spike (RBD)-Fc (SARS-CoV-2, UniProt P0DTC2)
Experiment: ELISA

EDLFYQ [wild type Spike S1-Interacting Domain of ACE2 Receptor (SPIDAR) peptide]: binds.
